Laboratory results reported in doi:10.1101/2024.08.08.607204, “Mechanism of ASF1 Inhibition by CDAN1” (bioRxiv, 2024).
Values joined by “and” are separate entries in the source; they are usually repeats but may differ in a detail not shown here. Equal entries are not always repeated.

B1: CDAN1 MA3 domain (ST-CDAN1C, residues 1008-1227) (domain or fragment, human, UniProt Q8IWY9 1008-1227, looked up)
chain: GERRGCSRACEHHAPLPSHLISEIKDVLSLAVGPRDPDEGVSPEHLEQLLGQLGQTLRCRQFLCPPAEQHLAKCSVELASLLVADQIPILGPPAQYRLERGQARRLLHMLLSLWKEDFQGPVPLQLLLSPRNVGLLADTRPREWDLLLFLLRELVEKGLMGRMEIEACLGSLHQAQWPGDFAEELATLSNLFLAEPHLPEPQLRACELVQPNRGTVLAQS
notes: Codanin-1 (CDAN1), MA3 domain, residues 1008-1227; also called Strep-CDAN1C; CDAN1 C-term; source: Expi293, transiently transfected, purified in complex with F-CDIN1 (anti-FLAG, Strep-Tactin); not shown: 3xStrep-II-TEV, N-terminal, kept
B2: FLAG-tagged CDIN1 (F-CDIN1) (natural protein, UniProt Q9Y2V0 1-281, looked up)
chain: MILTKAQYDEIAQCLVSVPPTRQSLRKLKQRFPSQSQATLLSIFSQEYQKHIKRTHAKHHTSEAIESYYQRYLNGVVKNGAAPVLLDLANEVDYAPSLMARLILERFLQEHEETPPSKSIINSMLRDPSQIPDGVLANQVYQCIVNDCCYGPLVDCIKHAIGHEHEVLLRDLLLEKNLSFLDEDQLRAKGYDKTPDFILQVPVAVEGHIIHWIESKASFGDECSHHAYLHDQFWSYWNRFGPGLVIYWYGFIQELDCNRERGILLKACFPTNIVTLCHSIA
notes: CDIN1 (C15orf41) cDNA synthesized by IDT, in pCDNA3.1; source: Expi293, transiently transfected, in lysate and purified in complexes (anti-FLAG, Strep-Tactin); not shown: 3xFLAG, N-terminal, kept
B3: Strep-tagged CDAN1 (ST-CDAN1), wildtype (natural protein, human)
chain: MAAVLESLLREEVSVAAVVRWIARSTQGSEDNAGEAAALSSLRALRKEFVPFLLNFLREQSSRVLPQGPPTPAKTPGASAALPGRPGGPPRGSRGARSQLFPPTEAQSTAAEAPLARRGGRRRGPGPARERGGRGLEEGVSGESLPGAGGRRLRGSGSPSRPSLTLSDPPNLSNLEEFPPVGSVPPGPTGTKPSRRINPTPVSEERSLSKPKTCFTSPPISCVPSSQPSALDTSPWGLGLPPGCRSLQEEREMLRKERSKQLQQSPTPTCPTPELGSPLPSRTGSLTDEPADPARVSSRQRLELVALVYSSCIAENLVPNLFLELFFVFQLLTARRMVTAKDSDPELSPAVLDSLESPLFQSIHDCVFFAVQVLECHFQVLSNLDKGTLKLLAENERLLCFSPALQGRLRAAYEGSVAKVSLVMPPSTQAVSFQPETDNRANFSSDRAFHTFKKQRDVFYEVLREWEDHHEEPGWDFEKGLGSRIRAMMGQLSAACSHSHFVRLFQKQLLQMCQSPGGAGGTVLGEAPDVLSMLGADKLGRLWRLQERLMAPQSSGGPCPPPTFPGCQGFFRDFILSASSFQFNQHLMDSLSLKIQELNGLALPQHEPNDEDGESDVDWQGERKQFAVVLLSLRLLAKFLGFVAFLPYRGPEPPPTGELQDSILALRSQVPPVLDVRTLLQRGLQARRAVLTVPWLVEFLSFADHVVPLLEYYRDIFTLLLRLHRSLVLSQESEGKMCFLNKLLLLAVLGWLFQIPTVPEDLFFLEEGPSYAFEVDTVAPEHGLDNAPVVDQQLLYTCCPYIGELRKLLASWVSGSSGRSGGFMRKITPTTTTSLGAQPSQTSQGLQAQLAQAFFHNQPPSLRRTVEFVAERIGSNCVKHIKATLVADLVRQAESLLQEQLVTQGEEGGDPAQLLEILCSQLCPHGAQALALGREFCQRKSPGAVRALLPEETPAAVLSSAENIAVGLATEKACAWLSANITALIRREVKAAVSRTLRAQGPEPAARGERRGCSRACEHHAPLPSHLISEIKDVLSLAVGPRDPDEGVSPEHLEQLLGQLGQTLRCRQFLCPPAEQHLAKCSVELASLLVADQIPILGPPAQYRLERGQARRLLHMLLSLWKEDFQGPVPLQLLLSPRNVGLLADTRPREWDLLLFLLRELVEKGLMGRMEIEACLGSLHQAQWPGDFAEELATLSNLFLAEPHLPEPQLRACELVQPNRGTVLAQS
notes: Codanin-1 (CDAN1) cDNA from Horizon Discovery/Dharmacon; a point mutation of the clone (S421F) was corrected; in pCDNA3.1; Dimer by SEC-MALS and cryo-EM; Same plasmid used in Expi293 (purifications) and in Flp-In 293 T-REx (pulldowns); kept as one molecule; also called WT CDAN1; Strep-CDAN1; source: Expi293, transiently transfected, in lysate and purified in complexes (anti-FLAG, Strep-Tactin); …

Experiments:
[1] = biological target: B2; assay: cryo-EM structure; purified CDAN1 C-term:CDIN1 (C:C) complex crosslinked with BS3, 0.78 mg/mL; single-particle cryo-EM, ~6 Å reconstruction; conditions: both partners purified
[2] = biological target: B3; assay: SEC-MALS; 200 μg of each purified complex at 5 μM on an SRT SEC-300 column with DAWN HELEOS II detector; dn/dc 0.185; conditions: both partners purified
[3] = biological target: the molecule itself; assay: as above

Binder: B1
- binding result [1]: binds

Binder: B2
- stoichiometry N [2]: 2 copies of CDIN1 per two copies of CDAN1

Binder: B3
- stoichiometry N [3]: 2 copies of CDAN1 in the C:A complex and 2 copies of CDAN1 in the C:C:A complex
